Where a chain is given by its changes, count along the chain named. Read-outs that look alike come from different tables or passages of the source.
Assays:
[1] = system: adenylate cyclase activity in UMR-106 rat osteosarcoma cells; assay: UMR-106 based adenylate cyclase assay (cAMP formation); assay type: cell-based; details: for EC50: UMR-106 cells, untreated samples, read-out: EC50, concentration effective for half-maximal stimulation of adenylate cyclase activity; for potency relative to hPTH (in words): UMR-106 adenylate cyclase assay
From the text: In the present specification, PTH activity is defined in the context of the osteosarcoma-based adenylate cyclase assay employed conventionally in the art. Briefly, this assay provides an in vitro determination of the extent to which PTH stimulates adenylate cyclase activity in rat osteosarcoma cells of the `UMR` lineage, and thus provides an indication of PTH effects on bone tissue in vivo. Protocols for conducting the assay have been described by Rodan et al, 1983, J. Clin. Invest., 72:1511 (in which the osteosaracoma cells of the ROS lineage are employed) and by Rabbani et al, 1988, Endocrinol., 123:2709 (which employs the line UMR-106). […] The term EC50 refers to the concentration of PTH or variant effective for half-maximal stimulation of adenylate cyclase activity.
Thawed or fresh samples of human PTH(1-84) and of PTH variants obtained as described above were then evaluated for biological activity using a UMR-106 based adenylate cyclase assay and the protocol as described by Rabbini et al, 1988, Endocrinology, 123:2709, which is incorporated herein by reference. As noted, rat osteosarcoma cells of the UMR line are stimulated by PTH to produce adenylate cyclase, an enzyme which catalyzes intracellular conversion of ATP to its cylic monophosphate analogue, cAMP. In this assay therefore, PTH activity is determined by assaying radiometrically the formation of cAMP in PTH-stimulated UMR cells. The results of the assays, expressed in terms of EC50 (concentration of PTH or variant effective for half-maximal stimulation of adenylate cyclase activity), are presented in the table below: […]

[2] = Trypsin sensitivity: trypsin or mock incubation followed by UMR-106 adenylate cyclase assay; details: UMR-based adenylate cyclase assay after trypsin incubation under the exemplified conditions; read-out: EC50 following trypsin incubation
Procedure: PTH variants having an "improved stability in the presence of trypsin" are degraded by trypsin at a rate that is slower than a similarly treated native PTH control. An assay suitable for identifying a reduced tryptic digestion rate entails a two step procedure, in which a PTH variant and a native PTH control are separately incubated with trypsin for a defined period, and are then assayed for activity in the osteosarcoma-based assay just described. Protocols suitable for assaying trypsin sensitivity are described in the literature and are outlined in the examples herein.
To measure the sensitivity of a compound (native PTH or variants) to digestion with trypsin, duplicate incubations were established for each compound in either the presence of trypsin ("Trypsin Incubation") or the absence of trypsin ("Mock Incubation"). For example, a lyophilized aliquot of PTH (or variant) was solubilized for 20 minutes at room temperature in 10 mM acetic acid at a final concentration of 1 mg/mL (50 μg PTH or variant plus 50 μL 10 mM acetic acid). […] The appearance of the cleavage product was monitored as a function of time at 253 nm. […]
Parallel trypsin and mock incubations were established as follows. […] Dose-response curves were generated and the relevant EC50 values were calculated. […]

trypsin [3] = system: trypsin
Procedure: (§1) The stability of PTH and variants to degradation by trypsin was also quantified by SDS polyacrylamide gel electrophoresis (SDS-PAGE). Incubations of PTH or variant with trypsin were established. For example, a sufficient aliquot of lyophilized PTH or variant was first solubilized for 20 minutes at room temperature with 10 mM acetic acid (final concentration of 1 mg/mL) and then diluted about 20-fold with Tris buffer. About 10 μg of PTH (or variant) was removed for a preincubation, "time zero" time point, and was lyophilized. The incubations were initiated by addition of an appropriate amount of freshly prepared trypsin solution in Tris buffer for a final trypsin to PTH (or variant) ratio of 1:500 (w/w). The samples were incubated at room temperature. Aliquots of the appropriate volume corresponding to an initial amount of undigested PTH (or variant) of 10 μg were removed at specific times (2, 5, 20, 60, 240 minutes). These were quenched immediately by adding an equal weight of SBTI to trypsin (either 2 μL of SBTI in Tris at a concentration of 10 μg/mL or 0.02 μg SBTI was added to the time point containing 0.02 μg trypsin and 10 μg initial equivalent amount of PTH or variant in Tris buffer). Samples quenched at the various time points were then lyophilized.
(§2) Lyophilized samples containing 10 μg of intact and/or fragmented PTH or variant were solubilized in gel sample buffer and subjected to electrophoresis using suitable conditions to separate intact PTH from the smaller fragments (16.5% acrylamide gel, BioRad Mini-Protean II apparatus, 90 minutes, 100 mV). The gels were fixed and stained for protein with Coomassie Blue. The amount of intact, full length PTH present in each of the various samples (preincubation sample and time point samples) was quantified using a gel scanning method, which measures the quantity of stain and therefore the amount of protein scanned in each band. Initially, a standard curve was constructed by loading various amounts of PTH in each lane (2,2, 4, 6, 8, 10 μg per lane), scanning each lane, and then constructing a standard curve of the quantity of stain at the mobility of PTH as a function of the amount of PTH loaded per lane. With the gel scanning system, the quantity of stain was proportional to the amount of PTH loaded in the range of 1 to 10 μg per lane. Using this standard curve, the amount of intact PTH present in each sample was calculated from the quantity of stain at the mobility of intact PTH.
(§3) The amount of PTH (or variant) in the preincubation sample was termed Po (scanned amount corresponding to approximately 10 μg intact PTH or variant) and the amount at a given time, t, was defined as Pt.

ovariectomized rat = assay: Ovariectomized rat model of osteoporosis, total skeletal calcium scan; assay type: in vivo; details: subcutaneous, once daily for 28 days, human PTH 150 μg/kg, variant dosed at 25 and 150 μg/kg, dose of the reported result not stated
Procedure: The P2 variant was also evaluated in vivo for its effect on skeletal tissue, in an ovariectomized rat model of osteoporosis. Formulations of the P2 variants were first prepared by reconstituting the P2 variant from lyophilized powder in 0.1M acetic acid, then diluting to 10 mM acetic acid by addition of normal saline vehicle and 2% (v/v) heat-inactivated rat serum, to generate a stock solution containing the variant at a concentration of about 150 μg/ml. The P2 formulation was then injected subcutaneously at the neck region, in selected volumes representing dosage sizes of 25 μg/kg and 150 μg/kg (8 rats/each dose). A third group of rats received human PTH at a dose of 150 μg/kg and a fourth group received vehicle alone. Treatment regimen consisted of single dose administration once daily for 28 days.
After treatment, the rats were sacrificed and evaluated by total skeletal calcium scan. Relative to rats receiving vehicle alone, the whole body calcium scanning results indicated an improvement in rats receiving human PTH (5.8% increase), and a still further improvement (9.6% increase) in rats receiving the [His^25 His^26 Leu^27 ] variant. It is believed that enhanced effects of this variant result from its greater half-life in vivo i.e. its resistant to serum-borne trypsin and/or other enzymes which otherwise degrade and/or inactivate the native hormone.

trypsin [4] = assay: Trypsin degradation time course quantified by SDS-PAGE gel scanning
Procedure: as §1, §2, §3

human PTH(1-84) [hPTH, reference compound]
EC50 [1]: 1 nM
EC50 [2]: ~12 nM
Half-Life (from SDS-PAGE analysis) (trypsin [3]): 25 ± 5 min
increase in whole body calcium relative to rats receiving vehicle alone (ovariectomized rat): 5.8%

B1: [His^25 ]hPTH (protein, UniProt P01270 32-115, looked up, variant R25H)
Parathyroid hormone: SVSEIQLMHNLGKHLNSMERVEWLHKKLQDVHNFVALGAPLAPRDAGSQRPRKKEDNVLVESHEKSLGEADKADVNVLTKAKSQ
potency relative to hPTH (in words) [1]: substantially equipotent
EC50 [1]: 2 nM
Half-Life (from SDS-PAGE analysis) (trypsin [3]): 27 ± 7 min

B2: [His^25 His^26 Leu^27 ]hPTH (protein, UniProt P01270 32-115, looked up, variant R25H K26H K27L)
Parathyroid hormone: B1 Parathyroid hormone with K26H, K27L
potency relative to hPTH (in words) [1]: substantially equipotent
EC50 [1]: 1.7 nM
increase in whole body calcium relative to rats receiving vehicle alone (ovariectomized rat): 9.6%
Half-Life (from SDS-PAGE analysis) (trypsin [4]; Trypsin:PTH = 1:500 (w/w), room temperature, time when Pt/Po = 0.5): > 240 min
initial material remaining (intact) (trypsin [4]; after 240 minutes, trypsin:PTH 1:500 (w/w)): more than 60%
resistance to proteolysis by trypsin (in words) (trypsin [4]; trypsin to PTH ratio of 1:500 (w/w)): almost completely resistant to proteolysis

— patent US5382658A, “Stability-enhanced variants of parathyroid hormone” (Allelix Biopharmaceuticals Inc., priority 1992, dated 1995)
